# Measurements reported in patent publication US9687591B2, “Building stratified biomimetic tissues and organs using crosslinked ultrashort peptide hydrogel membranes” (Agency for Science, Technology and Research, priority 2010, dated 2017).
# “Also recorded” adds a separate entry of the source. Ends that are not written are not given here. Peptide text beside a SMILES is read from it.
# Assays:
# V79 = assay: Direct contact V79 colony assay (GLP); format: cell-based; settings: GLP study by CRO Toxikon
# [1] = Kinetics of disulfide formation, H2O2-assisted oxidation (UPLC); format: physicochemical; settings: 12 mM in water containing 0.06% H2O2, after 1 day
# Description: Only ˜50% of thiols remained after 1 day. The R^2 value of the thiol calibration curve was 1.000.
# (§1) For air oxidation, LK6C was dissolved in MilliQ water by vigorous vortexing for five minutes and dispensed into 20 μL aliquots. At appropriate time points, 180 μL of DTNB (Sigma, Singapore) working solution (4 mg/mL in 0.1M phosphate buffer pH 7.0) was mixed with the peptide solution for 15 minutes. Absorbance at 412 nm was then measured (InfiniteM200, Tecan, Switzerland). Using a calibration curve generated with L-cysteine (Sigma) as standard (R^2=0.999), the background-subtracted value was normalised to the reading at 0 hour to give the % of thiol remaining. For H2O2-assisted oxidation, LK6C was dissolved in water (HPLC grade, J. T. Baker, N.J., USA) containing 0.06% H2O2 (Merck, Sinagpore) and dispensed into aliquots. At appropriate time points, the aliquots were analysed using an Aquity® UPLC (Waters, USA) fitted with a single-quadrupole MS. Using a calibration curve generated with pure LK6C as standard (R^2=0.999), the area under the peak corresponding to LK6C monomer was normalised to that at 0 hour to give the % of thiol remaining.
# [2] = Kinetics of disulfide formation, oxidation by air (Ellman's assay); format: physicochemical; settings: 12 mM in water, capped tubes, room temperature, after 5 days
# Description: For oxidation by air, LK6C dissolved in water at 12 mM was left in capped micro-centrifuge tubes at room temperature. […] H2O2-assisted oxidation was much more efficient in the formation of disulfide bridges.
# as §1
# skins of guinea pigs = assay: Direct contact Kligman maximization test (GLP, ISO 10993-10); format: in vivo; settings: GLP study by CRO Toxikon
# [3] = Concentration needed for gelation; format: physicochemical
# Description: FIG. 18A illustrates the determination of a suitable gelation concentration with the LK6 control peptide sequence. A working concentration was established that was suitably low so as to save on material during testing but yet, capable of forming gels strong enough to be manipulated. LK6 gels were therefore casted at different concentrations and their stiffness was measured (average±s.d. of triplicates). As expected, G′ values increased with peptide concentration and it was determined that a working concentration of 12 mM afforded gels with sufficient mechanical integrity to withstand handling.
# The present invention as defined above offers significant improvements in material properties such as stiffness, elasticity and resistance of the gel to degradation compared to previous disclosures—ultra-small peptide-based and peptide/polymer-based hydrogels. Reactive chemical groups are also introduced to the peptide fibers which allow the facile in-situ chemical conjugation of biological signals. Furthermore, compared to previous formulations, less material is now needed for gelation (e.g. 10 mg/ml LK6C instead of 25 mg/ml for LK6), which translates into significant cost savings and higher water contents. This class of material is suitable for biomedical applications, for example but not limited to, three-dimensional cell culture, tissue engineering, sensing and drug and gene delivery.
# [4] = Water soak of casted gels (shape retention / degradation); format: physicochemical; settings: not oxidised, 24 hours of water soak
# Description: Peptide was dissolved in 200 μL of water+/−H2O2 and filled into custom-made hollow ring casts (diameter ˜1 cm). The ring ends were sealed with parafilm to minimise evaporation and the cast was kept at 25° C. for 22 hours before further manipulations.
# LK6 or LK6C gels were first casted and then soaked in water for various durations. […] These observations are also supported by rheological measurements (FIG. 28). Therefore, the strategy of disulfide crosslinking has increased the resistance of the gel to degradation and has made it possible to use the gel at a lower concentration compared to previous formulations. This, in turn, will translate into significant cost savings.
# [5] = Oscillation rheology of cysteine-containing peptide gels (stiffness G', LVE limit); format: physicochemical
# Text: Oscillatory rheology was used to quantify the stiffness of IVKC gels formed in the presence of varying amount of H2O2 in PBS. Elastic modulus, G′, was plotted against angular frequency, ω (FIG. 45). As already mentioned in FIG. 41, the G′ value increased tremendously after crosslinking with 0.06% H2O2 in PBS. Further increasing the amount of H2O2 increased the G′ values even more. For instance, gels cross-linked completely with 0.2% H2O2 in PBS achieved a G′ value of nearly 1 MPa. This level of stiffness was not achieved before. Hereafter, IVKC gels will be prepared in the presence of 0.2% H2O2 in PBS. Data here was reported as average of 4 samples±standard deviation.
# Rheology: The rheological properties of casted gels were measured with an ARES-G2 (TA Instruments, USA) using the oscillation method. Frequency-sweep studies were performed with ω=0-100 rad/s at strain, γ=0.1%. The gel stiffness was represented by plotting G′ against ω. Amplitude-sweep studies were performed beforehand at 1 Hz with γ=0-100%. The LVE limit of the gel was defined as the value of γ when G′ first dropped below 90% of the average initial value.
# The rheological properties of casted gels were measured with an ARES-G2 (TA Instruments, USA) using the oscillation method. Frequency-sweep studies were performed with ω=0-100 rad/s at strain, γ=0.1%. The gel stiffness was represented by plotting G′ against ω. […]
# [6] = tested on: Human corneal endothelial cells (HCEC); assay: Biocompatibility of cross-linked IVKC gels, calcein staining; format: cell-based; settings: gels cross-linked with 0.2% H2O2 in PBS for 24 hours and purified
# Description: To test the biocompatibility of cross-linked IVKC gels, a sensitive primary cell type was seeded onto the gels. IVKC gels were cross-linked with 0.2% H2O2 in PBS for 24 hours and excess H2O2 was purified from the gel using a dialysis-inspired method (as described in WO 2014/116187).
# To test the biocompatibility of cross-linked IVKC gels, a sensitive primary cell type was seeded onto the gels. IVKC gels were cross-linked with 0.2% H2O2 in PBS for 24 hours and excess H2O2 was purified from the gel using a dialysis-inspired method reported previously, see e.g. WO 2014/116187. Human corneal endothelial cells (HCEC, a kind gift from Singapore Eye Research Institute) freshly derived from human donor corneas were then seeded onto the gel and maintained in culture.
# [7] = Extent of crosslinking of IVKC by UPLC; format: physicochemical; settings: 24 hours
# Description: (§2) The crosslinking density of IVKC could be further modulated with H2O2 content. Ultra performance liquid chromatography (UPLC) was used to study the extent of crosslinking in IVKC after oxidation with varying amount of H2O2 in PBS for 24 hours. […] At 0.2% H2O2 in PBS for instance, IVKC was 100% crosslinked and none of the monomers remained.
# as §2, with “can” for “could”, “be” for “be further”, “hours (FIG. 43). In the absence of H2O2, IVKC remained mostly as monomers (>96%).” for “hours.”, “cross-linked” for “crosslinked”
# The crosslinking density of Ac-IVKC was modulated by varying the concentration of H2O2 (0-0.2%). The amount of monomeric (retention time-2.40 mins) and dimeric (˜2.67 mins) species were then quantified with ultra-performance liquid chromatography (UPLC) after incubation in the various H2O2 concentration for 24 hours at room temp (FIG. 43).
molecule,measurement,setting,value
"CC[C@H](C)[C@H](NC(=O)[C@H](CC(C)C)NC(C)=O)C(=O)N[C@H](C(=O)N[C@@H](C)C(=O)NCC(=O)N[C@@H](CCCCN)C(=O)N[C@@H](CS)C(=O)O)C(C)C [LK6C, LIVAGKC] (Ac-LIVAGKC-OH)",toxicity,V79,no significant toxicity
same,% of thiols remaining,[1],~50%
same,% of thiols remaining,[2],~80%
same,skin sensitization,skins of guinea pigs,no sensitization
LIVAGK (L-form) [LK6],concentration needed for gelation,[3],25000 µg/mL
same,gel state after water soak,[4],did not survive; also recorded: completely degraded
Ac-IVKC,increase of stiffness after oxidative crosslinking,[5]; 0.06% H2O2 in PBS,close to two orders
same,"stiffness, elastic modulus G'",[5]; gels crosslinked completely with 0.2% H2O2 in PBS,~1 MPa
same,duration cells remained viable (positive calcein staining),[6],at least ten days
same,crosslinked fraction,[7]; 0.2% H2O2 in PBS,100%
same,monomer content,"[7]; absence of H2O2, PBS",> 96%
